In the assay the target is Drosophila melanogaster SERINC (Drosophila melanogaster). In words: cryo-EM structure.

The text below walks through data of publication PMC6956856.

Regarding “Drosophila melanogaster SERINC (natural protein)”, the stoichiometry N (commonly a count of units in the complex or per binding partner) turned out to be 6.
